Experiment [1] deals with human CD46 on the cell surface (human), P15529. The experiment in a line: cell-based or functional assay.
The target in experiment [2] is T1, human CD46 (recombinant antigen used in affinity and mapping experiments) (human, UniProt P15529 35-285, limits assumed).
T1 construct: also called CD46 antigen
T1 sequence (looked up): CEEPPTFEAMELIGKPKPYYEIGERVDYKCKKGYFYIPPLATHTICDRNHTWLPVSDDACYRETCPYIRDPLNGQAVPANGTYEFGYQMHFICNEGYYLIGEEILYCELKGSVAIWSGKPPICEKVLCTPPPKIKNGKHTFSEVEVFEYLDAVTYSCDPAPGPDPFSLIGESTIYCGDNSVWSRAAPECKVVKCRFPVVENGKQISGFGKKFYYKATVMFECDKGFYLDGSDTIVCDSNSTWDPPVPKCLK
The experiment in a line: SPR (Biacore), human CD46 antigen series, 1:1 Langmuir model. On the technique in general: SPR reads the build-up and loss of mass on a sensor chip optically.

Experiment [3] deals with T1, human CD46 (recombinant antigen used in …). As to the kind of experiment: bio-layer interferometry (ForteBIO, superscript F), antigen concentration series.
Method: (§1) With regard to the data, affinity was measured in three ways to ensure accuracy. […] Second, the affinities and kinetic constants kₒₙ and koff of the selected modulators were then measured using bio-layer interferometry analysis on a ForteBIO RED (ForteBIO, Inc.) with a standard antigen concentration series. Finally, the affinity of selected modulators was measured by surface plasmon resonance (Biacore System, GE Healthcare). Based on a standard antigen concentration series and using a 1:1 Langmuir binding model, the Kd of the antibody binding to antigen and the kinetic constants kₒₙ and koff were determined.
For a further experiment, the target named is T2, marmoset CD46 homolog (marmoset (Callithrix jacchus), UniProt Q8HYX8 33-285, limits assumed).
T2 sequence (looked up): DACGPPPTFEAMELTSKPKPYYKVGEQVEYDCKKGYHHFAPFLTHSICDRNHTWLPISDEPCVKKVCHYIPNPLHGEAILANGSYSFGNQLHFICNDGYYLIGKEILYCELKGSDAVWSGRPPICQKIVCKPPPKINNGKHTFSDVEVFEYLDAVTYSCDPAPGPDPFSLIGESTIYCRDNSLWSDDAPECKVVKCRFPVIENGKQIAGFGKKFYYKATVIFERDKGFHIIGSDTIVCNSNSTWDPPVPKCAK
As to the kind of experiment: ForteBIO, concentration series of recombinant monomeric CD46 homolog. (In general: Biolayer interferometry detects binding as a change in optical thickness at a sensor tip.)

In experiment [4] the target is T1, human CD46 (recombinant antigen used in …). The experiment in a line: surface plasmon resonance (Biacore, superscript B), antigen concentration series, 1:1 Langmuir model.
Method: as §1

Method for marmoset CD46 homolog: Finally, cross-reactivity with regard to cynomolgus, marmoset, and squirrel monkey CD46 homologs were evaluated in ForteBIO using a concentration series with recombinantly expressed, monomeric CD46 antigens.

B1: humanized antibody hSC1.N71 (antibody, human IgG1, V domains shown)
VH: QVQLQESGPGLVKPSETLSLTCTVSGGSVSSYDISWIRQPPGKGLEWIGVIWTDGGTNYNSAFMSRVTISVDTSKNQFSLKLSSVTAADTAVYYCARVYDGYPWFAYWGQGTLVTVSS
VL: DIQMTQSPSSLSASVGDRVTITCRASQGISNYLNWYQQKPGKAPKLLIYYTSSLHSGVPSRFSGSGSGTDFTLTISSLQPEDFATYYCQQYIKLPWTFGGGTKLEIKR
notes: also called humanized SC1.N71; human SC1.N71
As a reminder, the Kd is the constant that tells how readily two partners part at equilibrium. The molecule B1 had an effective concentrations causing 50% cell death (EC50), HEK-293T cells, streptavidin-saporin in experiment [1] of 0.0266 nM. In experiment [2], the Kd turned out to be 0.7 nM.

B2: humanized antibody hSC1.N149 (antibody, human IgG1, V domains shown)
VH: QVQLVQSGAEVKKPGASVKVSCKASGYTFTDYNMDWVRQAPGQGLEWMGDINPNNGDTFYNQKFKGRVTMTTDTSTSTAYMELRSLRSDDTAVYYCARSKYDNYPWFAYWGQGTLVTVSS
VL: DIQMTQSPSSLSASVGDRVTITCRASQDINNYLNWYQQKPGKAPKLLIYYTSSLHSGVPSRFSGSGSGTDFTLTISSLQPEDFATYYCQQYIKLPWTFGGGTKLEIKR
On to B2, for which the effective concentrations causing 50% cell death (EC50), HEK-293T cells, streptavidin-saporin in experiment [1] turned out to be 0.174 nM.

B3: N50.3 (antibody, IgG2b, V domains shown)
VH: EVLLHQSGPELVKPGASVKIPCKASGYTFTDYNMDWVKQSHGKSLEWIGDINPNNGGTFYNQKFKGKATLTVHKSSSTAFMELRSLTSEDTAVYYCTRSKYDNYPWFAYWGQGTLVTVSA
VL: DIQMTQITSSLSASLGDRVTISCSASQGISNYLNWYQQKPDGTVKLLIYYTSSLHSGVPSRFRGSGSGTNYSLTISNLEPEDIATYYCQQYIKLPWTFGGGTKLEIKR
notes: .3 is the subclone suffix; also called SC1.N50
As for B3, the Kd in experiment [3] is 1 nM.

B4: N135.1 (antibody, IgG2b, V domains shown)
VH: DVQLVESGGGLVQPGGSRKLSCAASGFTFSSFGMHWVRQAPEKGLEWVAYISSATSAIYYADTVKGRFTISRDNPTNTLFLQMTSLRSEDTAMYYCARKGNNYFDYWGQGTTLTVSS
VL: QIVLTQSPAIMSASPGEKVTLSCSATSSVTYMHWLQQKPGSSPKPWIYRTSNLASGVPARFRGSGSGTSYSLTISSMEAEDAATYYCQQYHSYPPTFGGGTKLEIKR
notes: .1 is the subclone suffix; also called SC1.N135
For B4, in the experiment with marmoset CD46 homolog, the binding result is “no binding”. The dissociation constant Kd in experiment [3] stood at 1 nM.

B5: N95.1 (antibody, IgG2a, V domains shown)
VH: QVQLQQSGAELARPGASVKLSCKASDYTFTSYGISWVKQRTGQGLEWIGEIFPRSGNTYYNEKFKGKATLTADKSSSTAYMELRSLTSEDSAVYFCARGLGGAMDYWGQGTSVIVSS
VL: DIVMTQAAPSVPVTPGESVSISCRSSKSLLHSNGNTYLYWFLQRPGQSPQLLIYRMSNLASGVPDRFSGSGSGTTFTLRISGVEAEDVGVYYCMQHLEYPCTFGGGTKLEIKR
notes: .1 is the subclone suffix; also called SC1.N95
Regarding B5, the binding result with marmoset CD46 homolog is recorded as “no binding”. The Kd in experiment [3] worked out at 8 nM.

B6: N146.2 (antibody, IgG1, V domains shown)
VH: EVQLVESGGGLVKPGGSLKLSCAASGFTFSSFGMSWVRQTPEKRLEWVAAINSNGGNTYYSDTVKGRFTISRDNAKNTLYLQMSSLRSADTALYYCARVVHFDVWGAGTTVTVSS
VL: AIQMTQTTSSLSASLGDRVTISCSASQDISNYLNWYQQKPDGTVKLLIYYTSSLHSGVPSRFSGSGSGTDYSLTISNVEPEDVATYYCQQYSELPYTFGGGTKLEINR
notes: Kept apart from m10, which is the mouse/human chimeric form of the same clone; also called SC1.N146 (murine hybridoma clone)
In the case of B6, the binding result with marmoset CD46 homolog was “no binding”. In addition, the Kd in experiment [4] came out at 1.5 nM.

The values are drawn from US20170081419A1 (AbbVie / Abbott, published 2017).
